Molecular target: 3D8 IgG-N434D mutant (mouse | human)
Sequence (heavy, as listed by the source, chain 1 of 2): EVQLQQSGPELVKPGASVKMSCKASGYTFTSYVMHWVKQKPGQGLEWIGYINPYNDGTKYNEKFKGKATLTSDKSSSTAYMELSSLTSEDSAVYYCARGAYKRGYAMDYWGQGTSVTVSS
Sequence (light, as listed by the source, chain 2 of 2): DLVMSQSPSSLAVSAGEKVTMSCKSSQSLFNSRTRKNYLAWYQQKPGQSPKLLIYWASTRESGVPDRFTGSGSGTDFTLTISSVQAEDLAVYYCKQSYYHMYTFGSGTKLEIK

secretion of IL-8 and TNF-α by THP-1 cells treated with 5 μM IgG for 6 h (ELISA), against cells treated with wt 3D8 IgG: 40 % higher
Substance: tripartite motif-containing 21 (TRIM21) (from UniProt P19474 1-475) (natural protein)

— publication PMC6131520
